{
  "source": "paper PMC7089426",
  "about": "“C8J_1298, a bifunctional thiol oxidoreductase of Campylobacter jejuni, affects Dsb (disulfide bond) network functioning” (PLoS ONE, 2020)",
  "proteins": {"B1": {"name": "C8J_1298, periplasmic dimeric thiol oxidoreductase of Campylobacter jejuni 81116 (recombinant, lacking the signal sequence, C-terminal His-Tag) (enzyme)", "chain": "ASNSEISDFYSKSIKAQFPNATVSVSNRQKVGNTGFESVIVSVELNGQKQENILFTKDSLITPDLIDLKTGISYAQEYEMKKFQEARENFTKNAKAVAQKETMVIALGDKNKPAIYVFSDPECPYCREHLAQIDDELKNYQVNYILTPVHGKSAFEKSALIYKEAKKAKNDKEKIAILNKYYDANIKNYPKVSDAELKEVFSLYEKYRSLGLSATPTIIK"}},
  "target": "the molecule itself",
  "test": "cross-linking; glutaraldehyde (0.0001-0.02% v/v), C8J_1298 at 1.8 mg/ml, room temperature, 20 min, 0.05 M bicine-NaOH pH 8.5, 0.1 mM DTT, 0.4 M NaCl; quenched with ethanolamine-HCl pH 8.0",
  "data": [
    {"protein": "B1", "values": [
      {"measurement": "stoichiometry N", "result": 2}
    ]}
  ]
}
